Test results taken from patent publication US20210205413A1 (Nektar Therapeutics, priority 2018, published 2021).
“Also recorded” adds a separate entry of the source.

Columns and labels:
human IL-2Rβ = target: T1, human IL-2Rβ (Homo sapiens, UniProt P14784); experiment: Affinity to the IL-2 receptor by surface plasmon resonance; format: binding; details: SPR
T1 sequence (P14784 27-551): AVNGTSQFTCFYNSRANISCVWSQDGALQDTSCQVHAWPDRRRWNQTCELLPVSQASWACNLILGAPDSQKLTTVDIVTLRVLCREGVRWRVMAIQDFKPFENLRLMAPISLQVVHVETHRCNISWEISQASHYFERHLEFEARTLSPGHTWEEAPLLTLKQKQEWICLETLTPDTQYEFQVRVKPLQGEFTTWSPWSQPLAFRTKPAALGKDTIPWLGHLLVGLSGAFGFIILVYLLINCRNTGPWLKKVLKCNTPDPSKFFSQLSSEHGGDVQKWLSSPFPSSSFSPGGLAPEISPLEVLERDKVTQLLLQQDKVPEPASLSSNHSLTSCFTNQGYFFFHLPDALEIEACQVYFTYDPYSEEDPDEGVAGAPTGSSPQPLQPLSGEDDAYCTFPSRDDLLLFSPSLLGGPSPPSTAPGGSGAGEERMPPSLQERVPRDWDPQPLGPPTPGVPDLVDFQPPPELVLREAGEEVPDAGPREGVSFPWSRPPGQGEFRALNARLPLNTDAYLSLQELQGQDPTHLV
Protocol: Impaired IL-2 production and regulatory T cell dysfunctions have been implicated as an immunological mechanism in multiple autoimmune diseases. While low-dose IL-2 can be used to stimulate Tregs for clinical benefit, poor pharmacokinetics necessitates daily delivery, adverse events are dose-limiting, and Treg increases are modest and short-lived. […] The affinity to the IL-2 receptor is assessed by surface plasmon resonance. Activity in human PBMC can be measured by pSTAT5 induction in multiple lymphocyte populations using flow cytometry and time-of-flight mass cytometry (CyToF). In vivo activity after subcutaneous administration in C57BL/6 mice or cynomolgus monkey is measured by changes in lymphocyte numbers and activation by flow cytometry. Ex vivo Treg function is determined by the inhibition of Tcon proliferation by isolated splenic Treg. Efficacy is assessed in a model of systemic lupus erythematosus (SLE) using MRL/MpJ-Faslpr mice. […] In mice, a single administration leads to sustained Treg mobilization for 7-10 days in blood and spleen without Tcon activation, an effect concomitant with induction of Treg activation markers and increased ex vivo suppressive capacity. […] Finally, an RUR20kD-IL-2 composition is efficacious in mouse models of SLE.

Tregs [1] = experiment: Single-dose PK/PD study in mice: Tregs in blood and spleen by flow cytometry; format: in vivo, C57BL/6 mice
Text: Following administration, blood and spleen samples are collected at days 1-7 and day 10 post administration. More particularly, at each time point, blood and spleen samples are collected; samples are pooled and assessed for pharmacodynamic analysis of drug action on lymphocyte cell populations by flow cytometry (see e.g. Example 5), expressed as a fold change relative to vehicle control. In addition to changes in cell numbers, functional markers and markers of activity are quantified. Finally, plasma drug concentration is also assessed.

Tregs [2] = experiment: Single-dose study in cynomologous monkey: Tregs in blood by flow cytometry; format: in vivo
Protocol: A series of blood samples are taken from each animal before treatment (day −6 and −1) and at multiple intervals following treatment for assessment by flow cytometry of Treg cell numbers and activation state.
For immunophenotyping analysis, blood samples (approximately 1.0 mL) are collected from each monkey at the following time points: Pre-treatment (Day −6 and −1), Day 2, Day 3, Day 4, Day 5, Day 6, Day 7, Day 10, Day 14, and Day 21 post treatment. Venipuncture samples are collected into tubes containing the anticoagulant, K2EDTA. Tubes are placed on wet ice pending transfer. The whole blood samples are analyzed by flow cytometry using the following panels, and the samples are analyzed for the following: • T cell panel: CD45/CD3/CD4/CD8/ICOS • TB/NK panel: CD45/CD3/CD16/CD20 • pSTAT5 panel: CD3/CD4/CD8/CD25/CD127/pSTAT5 • Treg panel 1: CD3/CD4/CD8/CD25/FoxP3/Ki67 • Treg panel 2: CD3/CD4/CD8/CD25/FoxP3/Helios Computerized systems can be used for the conduct of the study, for example flow cytometry data acquisition can use BD FACSCanto II/FACSDiva LEGENDPlex Data Analysis Software, and flow cytometry data analysis can use De Novo FCS Express software.
Values from male and female are averaged, and the magnitude of change is shown relative to d-1 values, marked by the dotted line.

[3] = Phase I single ascending subcutaneous dose study in healthy volunteers: pharmacokinetics; format: in vivo, human; details: for AUC0-14 d / Cmax / tmax: Single Dose Study
Protocol: A double-blind, randomized, placebo-controlled study is conducted to evaluate the safety, tolerability, pharmacokinetics, and pharmacodynamics of single ascending low sub-cutaneous doses of an RUR20kD-IL-2 composition (RUR20kD-IL-2) in healthy volunteers. […] Twelve subjects are randomized to each dose cohort, nine of whom received a single subcutaneous dose of RUR20kD-IL-2 while three received placebo. […] The drug product is supplied in single-use glass vials and stored at 2-8° C. […] Placebo is a commercially available 0.9% sodium chloride solution. A starting dose of 0.3 μg/kg is chosen using the minimally anticipated biological effect level (MABEL) approach and is supported by the no observed adverse effect level (NOAEL) in the most sensitive species from nonclinical toxicology studies.
The primary objective of the study is to evaluate the safety and tolerability of RUR20kD-IL-2 administered as a single subcutaneous dose. […] In a first phase of the study, immune markers are tested pre-dose up to 20 hours post-dose. Specifically, Tregs, CD4^+-T cells, CD8^+-T cells, natural killer (NK) cells, cytokines, soluble CD25, and RNA are tested in RUR20kD-IL-2- and placebo-receiving cohorts. In subsequent phases, the same immune markers are also tested at 4-, 5-, 6-, 7-, 8-, 10-, 12-, 15-, 18-, 20-, 25-, 30-, 40, and 50-days post-dose.

For “(1,3-bis(methoxypoly(ethylene glycol)10kDcarbamoyl)-2-propanoxy)-4-butanamide)interleukin-2) [RUR20kD-IL-2]”, which “affinity for human IL-2Rβ relative to IL-2Ra and IL-2Rαβ complexes” value (human IL-2Rβ) is on record?
The value was “greatly attenuated affinity”.

What about the “time of peak increase in CD4+ Treg cell numbers” value (Tregs [1]; blood and spleen, single SC dose 0.03-0.3 mg/kg) of the same substance?
Its value is “four days following administration; also recorded: four days after administration”.

What about the “duration of sustained Treg mobilization” value (Tregs [1]; blood and spleen, single administration) of the same substance?
Its value is 7 to 10 days.

What about the “time until Treg levels return to baseline” value (Tregs [1]; single SC 0.3 mg/kg) of the same substance?
Its value is 7 to 10 days.

What about the “day ICOS expression returns to baseline” value (Tregs [1]; single SC dose) of the same substance?
The value was no more than 7 days.

What about the “day of peak ICOS expression on Treg” value (Tregs [1]; single SC dose) of the same substance?
The value was 3 days.

What about the “percentage of proliferating (Ki67) Treg, duration” value (Tregs [1]; single SC dose) of the same substance?
Its value is “sustained through day 6”.

And the “time of maximum of Treg activation markers (CD25 and Foxp3 MFI)” value (Tregs [1]; single SC dose, highest dose 0.3 mg/kg, 0.3 mg/kg)?
Its value is “in the first two days following administration; also recorded: within the first two days following administration”.

And the “day FoxP3 MFI nearly returns to pre-dose levels” value (Tregs [2]; single SC 25 μg/kg)?
Its value is 14 to 21 days.

What about the “day by which CD25 MFI returns to near pre-dose levels” value (Tregs [2]; single SC 25 μg/kg) of the same substance?
The value was no more than 21 days.

And the “day of maximum CD25 MFI” value (Tregs [2]; single SC 25 μg/kg)?
Its value is 6 days.

And the “days by which Treg numbers return to near d-1 levels” value (Tregs [2]; single SC 25 μg/kg)?
The value was 14 to 21 days.

And the “time of maximum FoxP3 MFI” value (Tregs [2]; single SC 25 μg/kg)?
Its value is 6 days.

What about the “time of maximum Treg cell numbers” value (Tregs [2]; single SC 25 μg/kg) of the same substance?
Its value is “seven days following administration”.

And the “duration of sustained Treg mobilization and activity” value (Tregs [2]; single administration)?
The value was “over 14 days”.

And the AUC0-14 d ([3]; 3.0 μg/kg, Median (n = 9))?
The AUC0-14 d was 214 ng·days/mL.

And the Cmax ([3]; 3.0 μg/kg, Median (n = 9))?
The Cmax was 21 ng/mL.

And the tmax ([3]; 3.0 μg/kg, Median (n = 9))?
Its tmax is 84 h.

And the AUC0-14 d ([3]; 3.0 μg/kg, max)?
The AUC0-14 d was 388 ng·days/mL.

And the Cmax ([3]; 3.0 μg/kg, max)?
Its Cmax is 41 ng/mL.

And the tmax ([3]; 3.0 μg/kg, max)?
Its tmax is 336 h.

And the AUC0-14 d ([3]; 3.0 μg/kg, min)?
The AUC0-14 d was 143 ng·days/mL.

And the Cmax ([3]; 3.0 μg/kg, min)?
The Cmax was 13 ng/mL.

What about the tmax ([3]; 3.0 μg/kg, min) of the same substance?
Its tmax is 31.2 h.

And the Cmax ([3]; 6.0 μg/kg, Median (n = 9))?
Its Cmax is 46 ng/mL.

And the tmax ([3]; 6.0 μg/kg, Median (n = 9))?
Its tmax is 120 h.

What about the AUC0-14 d ([3]; 6.0 μg/kg, max) of the same substance?
Its AUC0-14 d is 705 ng·days/mL.

And the Cmax ([3]; 6.0 μg/kg, max)?
Its Cmax is 70 ng/mL.

And the tmax ([3]; 6.0 μg/kg, max)?
Its tmax is 220 h.

And the AUC0-14 d ([3]; 6.0 μg/kg, min)?
The AUC0-14 d was 73 ng·days/mL.

And the Cmax ([3]; 6.0 μg/kg, min)?
The Cmax was 13 ng/mL.

What about the tmax ([3]; 6.0 μg/kg, min) of the same substance?
Its tmax is 48 h.

What about the Half-life ([3]; healthy volunteers, single SC dose, decline after approximately 2 weeks post-dose, preliminary) of the same substance?
Its Half-life is 190 to 220 h.

And the “time of maximum concentrations post-dose” value ([3]; healthy volunteers, single SC dose, preliminary PK analysis)?
The value was 4 to 6 days.
